Reference: patent publication US20230340064A1 (published 2023)

Columns and labels:
[1] = molecular target: HLA-A1-restricted MAGE-A3EVD-MHC-multimer (MAGE-A3, …; immuneAware) (human); assay: flow cytometry, MHC-multimer staining of TCR-transduced CD8+ T cells
[2] = molecular target: T1, titin peptide on HLA-A*01:01 (human); assay: cytokine release
T1 peptide: ESDPIVAQY

[3] = molecular target: T2, MAGE-A3 peptide on HLA-A*01:01 (human); assay: multimer staining
T2 peptide: EVDPIGHLY
From the text: CD8 T cells were isolated from PBMCs of a healthy donor and transduced with three different MAGE-A3-reactive TCRs. Transduced CD8⁺ T cells were enriched by FACS using the constant beta 1 region as a marker for transduction. After expansion of these cells, they were stained either with a MAGE-A3EVD-MHC-multimer (right panel) or antibodies against CD8 and Cß1 (left panel) and analyzed by flow cytometry. Populations were gated on single live cells.
Sequences of TCR-α and TCR-β chains of MAGE-A3-reactive T-cell clones were identified by Next Generation Sequencing and after exchanging the constant TCR regions by their minimal-murinized counterparts cloned into the retroviral vector pES.12-6. For the β chain the Cß1 sequence was used. PBMCs of three healthy donors were isolated by ficoll gradient centrifugation. CD8-positive Cß1-negative T-cells were enriched by negative magnetic selection (Miltenyi) and stimulated in non-tissue culture 24-well plates with plate bound antibodies specific for CD3 and CD28. Amphotropic retroviral particles were produced by transfection of HEK293T cells with the respective TCR encoding retroviral plasmid and two expression plasmids. Three days after stimulation, CD8-positive Cß1-negative T cells were transduced and on day ten enriched for transduced CD8⁺ cells by MACS-separation using the Cβ1 constant beta region as a marker for transduction and then expanded by REP. Transgenic T cells were stained either with an HLA-A1-restricted MAGE-A3EVD-MHC-multimer (MAGE-A3, […]; immuneAware) or antibodies against CD8 and the constant β1 region.

| Binder | percent of T cells binding the MAGE-A3EVD-MHC-multimer [1] | binding result [2] | binding result [3] |
| --- | --- | --- | --- |
| TCR_2 (MAGE-A3-reactive TCR, transgenically expressed on CD8+ T cells) (TCR, V domains shown) V domain 1: KQEVTQIPAALSVPEGENLVLNCSFTDSAIYNLQWFRQDPGKGLTSLLLIQSSQREQTSGRLNASLDKSSGRSTLYIAASQPGDSATYLCAVRWETSGSRLTFGEGTQLTVNP V domain 2: DSGVTQTPKHLITATGQRVTLRCSPRSGDLSVYWYQQSLDQGLQFLIQYYNGEERAKGNILERFSAQQFPDLHSELNLSSLELGDSALYFCASSVGGGYEQYFGPGTRLTVTE | 20% | – | – |
| TCR1 (TCR, V domains shown) Valpha: KQEVTQIPAALSVPEGENLVLNCSFTDSAIYNLQWFRQDPGKGLTSLLLIQSSQREQTSGRLNASLDKSSGRSTLYIAASQPGDSATYLCAVIEYGNKLVFGAGTILRVKS Vbeta: DAMVIQNPRYQVTQFGKPVTLSCSQTLNHNVMYWYQQKSSQAPKLLFHYYDKDFNNEADTPDNFQSRRPNTSFCFLDIRSPGLGDAAMYLCATSWDRGYEQFFGPGTRLTVL | – | no recognition | recognises |
| TCR2 (TCR, V domains shown) Valpha: KQEVTQIPAALSVPEGENLVLNCSFTDSAIYNLQWFRQDPGKGLTSLLLIQSSQREQTSGRLNASLDKSSGRSTLYIAASQPGDSATYLCAVRWETSGSRLTFGEGTQLTVNP Vbeta: DSGVTQTPKHLITATGQRVTLRCSPRSGDLSVYWYQQSLDQGLQFLIQYYNGEERAKGNILERFSAQQFPDLHSELNLSSLELGDSALYFCASSVGGGYEQYFGPGTRLTVT | – | no recognition | recognises |
| TCR3 (TCR, V domains shown) Valpha: AQKVTQAQTEISVVEKEDVTLDCVYETRDTTYYLFWYKQPPSGELVFLIRRNSFDEQNEISGRYSWNFQKSTSSFNFTITASQVVDSAVYFCALSEALGYSSASKIIFGSGTRLSIRP Vbeta: GAGVSQSPSNKVTEKGKDVELRCDPISGHTALYWYRQSLGQGLEFLIYFQGNSAPDKSGLPSDRFSAERTGGSVSTLTIQRTQQEDSAVYLCASSDPMSGAQETQYFGPGTRLLVL | – | no recognition | recognises |
